A word on the stoichiometry N: it is the number of molecules, sites or subunits per partner or assembly.

This is an account of results in paper PMC7538587.

The target of assay [1] is SALT protein (Oryza sativa L. (Pusa basmati-1)) (UniProt A2WPN7). Put plainly: SAXS; SALT freshly eluted from gel filtration, 5, 11 and 22 mg/ml, 20 °C; molecular weight from SAXS about 32.2-33.4 kDa. A general note: SEC sorts molecules by how far they enter the pores of the column.
Assay [2] shares this target. Put plainly: SDS-PAGE without heat denaturation; purified SALT, 1 mg/ml, 12% gel, with SDS and BME, not heated; confirmed by immunoblotting.
Assay [3] shares this target. Put plainly: SEC; Superdex 200 10/300 GL, 200 µl of 5 mg/ml SALT, 20 mM each of mannose and galactose in sample and buffer; calibrated with marker proteins.

Where “and” joins values, the source holds several entries; their conditions need not be identical. Identical values can stand only once.

Consider “SALT protein (from UniProt A2WPN7 1-145) (natural protein)”, for which the stoichiometry N was 2 in assay [1]; 2 and 4 in assay [2]; 2 in assay [3].
